Key:
[1] = molecular target: Argiope argentata TuSp NT E37Q E82Q E85Q (Argiope argentata); test: SEC; Superdex 75 Increase 10/300 GL, 50 µl at 3 mg/ml, 20 mM NaOAc, 20 mM NaCl, pH 5.5
[2] = molecular target: Argiope argentata TuSp NT E37Q E82Q E85Q D130N (Argiope argentata); test: as above
[3] = molecular target: Argiope argentata TuSp NT E37Q E82Q (Argiope argentata); test: as above
[4] = molecular target: the molecule itself; test: 15N NMR relaxation (rotational correlation time); pH 5.5; T1 and T2 of backbone amides, 800 MHz; molecular weight estimated from the correlation time

## Argiope argentata TuSp NT E37Q E82Q E85Q (domain or fragment)
[1]
  stoichiometry N: 2

## Argiope argentata TuSp NT E37Q E82Q E85Q D130N (domain or fragment)
[2]
  stoichiometry N: 2

## Argiope argentata TuSp NT E37Q E82Q (domain or fragment)
[3]
  stoichiometry N: 2

B1: Argiope argentata tubuliform spidroin (TuSp 1) N-terminal domain, wild type (domain or fragment)
chain: AVTAVPSVFSSPNLASGFLQCLTFGIGNSPAFPTQEQQDLDAIAQVILNAVSTNTGATASARAQALSTALASSLTDLLIAESAESNYNNQLSELTGILSNCFIQTTGSDNPAFVSRIQSLISVLSQNTDVNIISTA
notes: Tubuliform spidroin 1 (TuSp 1) N-terminal domain, Argiope argentata; 136 residues (count printed for the A70E variant); Expressed from pET-32a-HisTrxHisNT; Intramolecular disulfide C22-C102; 15N- or 13C,15N-labelled for NMR; Calculated mass 14.1 kDa (monomer); also called TuSp NT; wt TuSp NT; not shown: His-Trx, N-terminal, cleaved
[4]
  stoichiometry N: 2

Source: PMC9237525, “Solution Structure of Tubuliform Spidroin N-Terminal Domain and Implications for pH Dependent Dimerization” (Frontiers in Molecular Biosciences, 2022)
